Data on one substance can be found in paper PMC10837352.

For this test, the target named is N‐terminal TadA‐8e (split site R74) fused to nMagHigh1 (UniProt P68398).

As to “pMag fused to C‐terminal TadA‐8e (split site R74) and nCas9 (from UniProt P68398 75-167)”, the adenine base editing at the ABES4 and ABES6 targets in E. coli DH10B, level 2‐BLABE (nMagHigh1‐pMag), in the absence of blue light, Sanger sequencing came out at 3%; the adenine base editing at the ABES4 and ABES6 targets in E. coli DH10B, level 2‐BLABE (nMagHigh1‐pMag), in the presence of blue light (10 mW cm^−2, 6 h), Sanger sequencing came to 90%.
